# Results taken from the supplement of paper PMC11865577.
# Legend:
# Assay in all cases: pull-down binding Z-score (relative to library population); higher = stronger binding
# [1] = tested on: G-clamp-N3 (biotin conjugate); conditions: RNA library: Library-1 (pre-miRNA loops + repeats)
# Summary of the method: (§1)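 Heat-folded RNA library (1 μg, Cy5 or Cy3 end label, phosphate/NaCl/KCl buffer) was captured for 60 min at 25 °C on streptavidin beads displaying 100 pmol of biotin-conjugated small molecule, then washed three times. The bound fraction, eluted in hot SDS, was hybridised to a DNA barcode microarray at 55.5 °C for 20 h. Z-scores for binding were taken against the library mean and standard deviation after beads-only subtraction and trimmed averaging of replicate barcoded probes.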
# [2] = tested on: TO-3-N3 (biotin conjugate); conditions: RNA library: Library-2
# Summary of the method: as §1
# [3] = tested on: TO-3-N3-2 (biotin conjugate); conditions: RNA library: Library-2
# Summary of the method: as §1
# TO-N3 (biotin conjugate) = conditions: RNA library: Library-2
# Summary of the method: as §1
# [4] = tested on: TO-N3-2 (biotin conjugate); conditions: RNA library: Library-2
# Summary of the method: as §1
Sequence,pull-down binding Z-score [1],pull-down binding Z-score [2],pull-down binding Z-score [3],pull-down binding Z-score (TO-N3 (biotin conjugate)),pull-down binding Z-score [4]
UGAGCAGGCCCAGAACCCAGCUCGUGCUCA [hsa-mir-6794],0.169,0.387,-0.114,0.56,0.805
UGAGCAGGGUCCACACCAAGUCGUGUUCA [hsa-mir-27a],-0.575,0.869,0.465,1.14,1.09
UGAGCAUUCUAGCAGCAGUUUGAUGAUCA [hsa-mir-6516],-0.0961,-0.57,-0.419,-0.394,-0.196
UGAGCAUUUUUACUGAAUUGCCA [hsa-mir-6715a],0.49,-0.582,-0.268,-0.738,-0.686
UGAGCUGUGAUGUUGCUCUCGAGCUGG [hsa-mir-769],-0.872,0.732,0.336,1.02,1.27
UGAGGAGCUUAGCAAGUAGCUAAGGCCAGA [hsa-mir-4517],0.384,-0.194,-0.393,0.339,1.1
UGAGGAGUAGAACACUCCUUA [hsa-mir-491],0.0146,-0.282,-0.448,-0.649,-0.939
UGAGGUACUUCCUUC [hsa-mir-1205],-0.28,0.111,-0.247,0.104,-0.169
UGAGGUUUACUAUGGAACCUCA [hsa-mir-4465],0.714,-0.566,-0.526,-0.958,-1.53
UGAGUACAUUAUUUAUGAUUAAUCA [hsa-mir-376a-1],-1.62,-0.874,-0.0505,-0.978,-0.847
UGAGUGAUGACUCAGGCGACUCCA [hsa-mir-338],1.31,-0.345,-0.0635,0.461,1.51
UGAGUGCCGACUGGCGCCUG [hsa-mir-4750],-0.352,-0.164,-0.448,0.0638,0.446
UGAGUGCUAUUUCAGUGCAACA [hsa-mir-362],-0.0128,0.967,0.108,0.821,0.0784
UGAGUGGCAUAAUCAGAGUACAAUUUGAGUCAUGCCCAUACAUCA [hsa-mir-23c],-1.1,-0.338,0.0374,-0.271,0.0219
UGAGUUUA [hsa-mir-451a],-1.09,-0.287,-0.207,-0.22,-0.372
UGAUCAUUAUAUGUAUGAUGAGAUCAU [hsa-mir-4528],1.33,-0.532,-0.131,-0.54,-0.0235
UGAUUUGUGACUUAAGAUUAAAAUCA [hsa-mir-23b],-0.478,-0.415,0.0381,-0.499,-0.649
UGCAAAUGCAAAGUUGGCUUUUGCA [hsa-mir-3680-2_3680-1],1.8,-0.669,-0.253,-0.954,-0.878
UGCACCACUCUCCCUGUGAUGAGGUGAA [hsa-mir-4786],-0.896,-0.535,-0.354,-0.255,0.456

Sequence,pull-down binding Z-score [1],pull-down binding Z-score [2],pull-down binding Z-score [3],pull-down binding Z-score (TO-N3 (biotin conjugate)),pull-down binding Z-score [4]
UGCACCAGUUCUGGCCGCUGGUGGA [hsa-mir-4683],-0.459,-0.16,-0.295,0.104,0.856
UGCAGAUGUGGACUGCUAAAUGCA [hsa-mir-1253],-0.572,-0.411,-0.171,-0.275,0.384
UGCAGUAUCCGCUGUUGCUGCU [hsa-mir-6132],-1.39,-0.329,-0.341,-0.105,0.672
UGCAGUGAGCAACCUACACAACUGCA [hsa-mir-5589],-0.716,-0.0632,-0.317,-0.0697,-0.188
UGCAGUGCUGGGCAUGGGCUUCUCG [hsa-mir-3677],0.689,1.07,0.328,1.49,1.54
UGCAGUUAGUGAAGCAGCUUAGAAUCUACUGCC [hsa-mir-18b],0.0114,0.192,0.625,0.989,1.47
UGCAGUUCUGUUGGGUGACAGCA [hsa-mir-6499],-0.982,0.239,-0.0248,0.342,0.485
UGCAUAAAUGAAGCUGAAUGA [hsa-mir-6134],-0.213,-0.352,0.378,-0.0557,0.629
UGCCACCCAGCCCUGCAGAGCCCCUGACUC [hsa-mir-6814],-1.17,0.562,0.422,1.16,1.44
UGCCAUACUUUUAACGGCA [hsa-mir-548i-4],-0.464,-0.727,-0.272,-1.09,-1.06
UGCCAUUAAAAGUAAUGGCA [hsa-mir-548i-3_548i-2_548i-1],1.22,0.489,-0.048,0.141,-0.409
UGCCAUUACUCUCAGUGGCA [hsa-mir-548y],-0.0483,-0.836,-0.564,-1.16,-1.01
UGCCCUAGCGGCU [hsa-mir-4268],-0.151,-0.212,-0.708,-0.211,-0.238
UGCCCUGGGGCCGUCCCUGCGCA [hsa-mir-1909],-1.26,0.425,0.143,0.883,1.63
UGCCUACUACUGAUGACAUACAAUGUAAGUGCUCAUUUAGGCG [hsa-mir-5696],-0.861,-0.702,-0.289,-0.71,-0.201
UGCCUCUCGGGGU [hsa-mir-6073],-0.532,0.000863,0.15,0.118,0.214
UGCCUUGUAGCAUUCAGGUCAAGCA [hsa-mir-103a-2],0.0735,-0.594,-0.378,-0.524,0.0485
UGCGUUAGGAUUUCUGUAUCAUCCUCCUAACGCA [hsa-mir-3166],0.901,0.576,0.141,0.306,-0.758
